Data on one molecule can be found in patent publication US20200276237A1 (MIE UNIVERSITY, published 2020).

Usually Kd stands for the constant that tells how readily two partners part at equilibrium.

Test [1] deals with T1, HLA-A2/MAGE-A8 risk peptide on T2 cells (human).
T1 construct: whole, on cells
The test is described as follows: FACS on T2 cells pulsed with risk peptide.

For test [2], the target named is T2, HLA-A2/MAGE-A10 risk peptide on T2 cells (human).
T2 construct: whole, on cells
Put plainly: FACS on T2 cells pulsed with risk peptide.

Test [3] has as its target T3, HLA-A2/MAGE-A11 risk peptide on T2 cells (human).
T3 construct: whole, on cells
The test is described as follows: FACS on T2 cells pulsed with risk peptide.

Test [4] addresses T4, HLA-A2/MAGE-B2 risk peptide on T2 cells (human).
T4 construct: whole, on cells
The test is described as follows: FACS on T2 cells pulsed with risk peptide.

Test [5] has as its target T5, HLA-A2/MAGE-B10 risk peptide on T2 cells (human).
T5 construct: whole, on cells
Put plainly: FACS on T2 cells pulsed with risk peptide.

The target in test [6] is T6, HLA-A2/MAGE-C2 risk peptide on T2 cells (human).
T6 construct: whole, on cells
The test is described as follows: FACS on T2 cells pulsed with risk peptide.

For test [7], the target named is T7, HLA-A2/RBBP5 risk peptide on T2 cells (human).
T7 construct: whole, on cells; Theoretical MHC IC50 is high (5880.0 nM)
The test is described as follows: FACS on T2 cells pulsed with risk peptide.

For test [8], the target named is T8, HLA-A2-MAGE-A4 p230 monomer (human).
T8 construct: Biotinylated soluble monomer, captured on neutravidin plates (ELISA) or on the Biacore sensor chip CAP; also called HLA-A2-MAGE-A4 monomer; MAGE-A4-derived peptide/HLA-A2 complex
The test is described as follows: SPR, BiacoreX100, HLA-A2-MAGE-A4 p230 on sensor chip CAP, purified scFv 12.5-200 nM, single cycle. (In SPR one partner is held on a chip, and binding of the other changes the refractive index at the surface.)
Procedure: Determination of KD value by Biacore was determined by measuring the dynamic changes in detection sensitivity (resonance, reflecting the change in mass on the chip) over time. The dissociation rate constant (Kd) and the binding rate constant (Ka) were determined by dynamic change curve, the binding constant was determined from the ratio of the two constants.

B1: MAGE #17 scFv-FLAG/His (scFv)
scFv: QVQLVQSGAEVKKPGSSVKVSCKASGGTFSSYAISWVRQAPGQGLEWMGGIIPIFGTANYAQKFQGRVTITADKSTSTAYMELSSLRSEDTAVYYCARSPRRAYHDAFDIWGQGTMVTVSSGGGGSGGGGSGGGGSSYELTQPPSMSVAPGKTASITCGGDHIGSKSVHWYQQKPGQAPVLVVYDDSDRPSGIPERFSGSNSGNTATLTISGTQAMDEADYYCLAWDSSTAIFGGGTKLTVL
notes: Purified scFv-FLAG/His form, used for Biacore and for FACS on T2 cells (detection with anti-FLAG); also called clone #17; anti-MAGE #17; not shown: FLAG tag and His tag from the His/FLAG expression vector
As for B1, the binding result in test [1], in test [2], in test [3], in test [4], in test [5] and in test [6] was “no binding” throughout. Also, in test [7], the binding result was “no binding”. The molecule also yielded a dissociation constant Kd in test [8] of 22 nM.
